According to paper PMC10878242 (Journal of Virology, 2024):

B1: mAb-3G4 (antibody, V domains shown)
VH: QVTLKESGPGILQPSQTLSLTCSFSGFSLSTSGMVVGWIRQPSGKGLEWLAHIWWDDVKRYNPALKSRLTISKDTSNSQVFLKIASVDTADTATYYCARSPFFAYWGQGTLVTISP
VL: DIQMTQSPSSLSASLGERVSLTCRASQDIGSNLNWLQKRSDGSIKRLIYATSSLDSGVPKRFSGSRSGSDYSLTISSLESEDFVDYYCLQYATSPYTFGGGTKLEIK
B2: mAb-1E7 (antibody, V domains shown)
VH: QIQLVQSGPELKKPGETVKISCKASGYIFTNYGMNWVKQAPGKGFKWMGWINTYTGEPTYVDDFKGRFAFSLETSASTVYLQINNLKNEDTATYFCARSLENWGQGTTLTVSS
VL: DIVMTQAAFSNPVTLGTSASISCRSSKSLLHSNGITYLYWYLQKPGQSPQLLIYQMSNLASGVPDRFSSSGSGTDFTLRISRVEAEDVGVYYCAQNVELPTFGGGTKLEIK

Columns and labels:
Details in all cases: both partners purified
[1] = target: T1, recombinant PCV2 capsid protein (PCV2-Cap) (Porcine circovirus 2, strain of …, UniProt D6R1Z5); assay: Western blot
T1 construct: also called monomeric PCV2-Cap

[2] = target: PCV2-Cap peptide aa 69–83 (Porcine circovirus 2, PCV2b strain SH); assay: ELISA; synthetic 15-mer peptides coated (1 µg/well); mAb-1E7 or mAb-3G4 added; detection with goat anti-mouse IgG
[3] = target: PCV2-Cap peptide aa 73–87 (Porcine circovirus 2, PCV2b strain SH); assay: as above
[4] = target: PCV2-Cap peptide aa 74–88 (Porcine circovirus 2, PCV2b strain SH); assay: as above
[5] = target: PCV2-Cap peptide aa 75–89 (Porcine circovirus 2, PCV2b strain SH); assay: as above

Row | Binder | binding result [1] | binding result [2] | binding result [3] | binding result [4] | binding result [5]
1 | B1 | binds | binds | – | – | –
2 | B2 | – | – | binds | binds | binds
